Where two headings read alike, the source gives them in different places.
T1: reovirus T1L σ3_(3)μ1_(3) heterohexamer (mammalian orthoreovirus type 1 Lang …, UniProt P07939 1-365; P11077 1-708)
T1 sequence (looked up) 1: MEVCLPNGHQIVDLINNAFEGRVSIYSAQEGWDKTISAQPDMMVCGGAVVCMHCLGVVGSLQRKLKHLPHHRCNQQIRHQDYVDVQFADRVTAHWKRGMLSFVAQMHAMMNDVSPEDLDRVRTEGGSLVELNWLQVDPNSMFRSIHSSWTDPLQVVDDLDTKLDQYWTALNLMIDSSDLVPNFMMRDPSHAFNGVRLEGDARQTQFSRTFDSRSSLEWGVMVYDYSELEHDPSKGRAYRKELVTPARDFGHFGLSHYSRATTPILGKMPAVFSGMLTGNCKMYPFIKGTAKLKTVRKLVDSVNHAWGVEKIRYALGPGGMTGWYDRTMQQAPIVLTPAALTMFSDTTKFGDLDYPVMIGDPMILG
T1 sequence (looked up) 2: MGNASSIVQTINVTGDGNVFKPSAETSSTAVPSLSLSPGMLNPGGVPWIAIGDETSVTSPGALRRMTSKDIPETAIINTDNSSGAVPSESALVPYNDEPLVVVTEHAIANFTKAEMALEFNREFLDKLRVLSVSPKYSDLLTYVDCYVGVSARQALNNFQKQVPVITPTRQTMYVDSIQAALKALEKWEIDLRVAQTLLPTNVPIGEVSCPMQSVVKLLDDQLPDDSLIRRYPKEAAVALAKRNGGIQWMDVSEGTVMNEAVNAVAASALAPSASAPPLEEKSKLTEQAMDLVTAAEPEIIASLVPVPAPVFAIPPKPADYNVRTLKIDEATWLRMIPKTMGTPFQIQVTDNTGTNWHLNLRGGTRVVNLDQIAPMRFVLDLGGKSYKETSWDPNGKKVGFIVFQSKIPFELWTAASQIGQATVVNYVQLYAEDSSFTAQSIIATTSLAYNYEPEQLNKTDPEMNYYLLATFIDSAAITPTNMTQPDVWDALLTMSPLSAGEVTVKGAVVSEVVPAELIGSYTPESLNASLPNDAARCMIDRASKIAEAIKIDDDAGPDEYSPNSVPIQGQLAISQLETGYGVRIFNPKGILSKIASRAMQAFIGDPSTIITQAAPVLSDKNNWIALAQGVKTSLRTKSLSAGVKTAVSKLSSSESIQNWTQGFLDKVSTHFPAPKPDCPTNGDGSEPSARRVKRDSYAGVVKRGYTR


Legend:
Test in all cases: AFM single-molecule force spectroscopy
[1] = target: T1, reovirus T1L σ3_(3)μ1_(3) heterohexamer
[2] = target: T1, reovirus T1L σ3_(3)μ1_(3) heterohexamer; remark: listed apart in the source
[3] = target: reovirus type 1 Lang (T1L) virion (mammalian orthoreovirus type 1 Lang (T1L)) (UniProt P07939)

Binder | koff [1] | kon [1] | koff [2] | Kd [3] | koff [3] | kon [3] | Kd [1]
His-tagged human Nogo-66 receptor 1 (amino acids 1-310) (receptor, UniProt Q9BZR6 27-310, looked up) CPGACVCYNEPKVTTSCPQQGLQAVPVGIPAASQRIFLHGNRISHVPAASFRACRNLTILWLHSNVLARIDAAAFTGLALLEQLDLSDNAQLRSVDPATFHGLGRLHTLHLDRCGLQELGPGLFRGLAALQYLYLQDNALQALPDDTFRDLGNLTHLFLHGNRISSVPERAFRGLHSLDRLLLHQNRVAHVHPHAFRDLGRLMTLYLFANNLSALPTEALAPLRALQYLRLNDNPWVCDCRARPLWAWLQKFRGSSSEVPCSLPQRLAGRDLKRLAANDLQGCA | 0.32 ± 0.21 s⁻¹ | 2.17e+06 ± 200000 M⁻¹ s⁻¹ | 3.51 ± 2.02 s⁻¹ |  |  |  | 
Fc-tagged mouse NgR1 (Fc fusion) CPGACVCYNEPKVTTSCPQQGLQAVPTGIPASSQRIFLHGNRISHVPAASFQSCRNLTILWLHSNALARIDAAAFTGLTLLEQLDLSDNAQLHVVDPTTFHGLGHLHTLHLDRCGLRELGPGLFRGLAALQYLYLQDNNLQALPDNTFRDLGNLTHLFLHGNRIPSVPEHAFRGLHSLDRLLLHQNHVARVHPHAFRDLGRLMTLYLFANNLSMLPAEVLMPLRSLQYLRLNDNPWVCDCRARPLWAWLQKFRGSSSEVPCNLPQRLADRDLKRLAASDLEGCAVASGPFRPIQTSQLTDEELLSLPKCCQPDAADKASVLEPGRPASAGNALKGRVPPGDTPPGNGSGPRHINDSPFGTLPSSAEPPLTALRPGGSEPPGLPTTGPRRRPGCSRKNRTRSHCRLGQAGSGASGTGDAEGS |  |  |  | 93.5 nM | 0.65 s⁻¹ | 6.94e+06 M⁻¹ s⁻¹ | 
His-tagged mouse Nogo-66 receptor 1 (amino acids 1-447) (receptor, UniProt Q99PI8 27-447, looked up) CPGACVCYNEPKVTTSCPQQGLQAVPTGIPASSQRIFLHGNRISHVPAASFQSCRNLTILWLHSNALARIDAAAFTGLTLLEQLDLSDNAQLHVVDPTTFHGLGHLHTLHLDRCGLRELGPGLFRGLAALQYLYLQDNNLQALPDNTFRDLGNLTHLFLHGNRIPSVPEHAFRGLHSLDRLLLHQNHVARVHPHAFRDLGRLMTLYLFANNLSMLPAEVLMPLRSLQYLRLNDNPWVCDCRARPLWAWLQKFRGSSSEVPCNLPQRLADRDLKRLAASDLEGCAVASGPFRPIQTSQLTDEELLSLPKCCQPDAADKASVLEPGRPASAGNALKGRVPPGDTPPGNGSGPRHINDSPFGTLPSSAEPPLTALRPGGSEPPGLPTTGPRRRPGCSRKNRTRSHCRLGQAGSGASGTGDAEGS | 0.23 ± 0.12 s⁻¹ | 2.99e+06 ± 460000 M⁻¹ s⁻¹ |  |  |  |  | 76.8 ± 51.8 nM
